Our source for the Km, kcat and kcat/Km values is patent EP3408384B1, “MUTATED CELLOBIOSE DEHYDROGENASE WITH MODIFIED SUBSTRATE SPECIFICITY” (priority 2016, dated 2017).

By kcat is commonly meant the number of substrate molecules converted per active site and unit of time at saturation. Broadly, the kcat/Km is the second-order rate constant that governs catalysis at low substrate concentration.

In this series the test system is OC[C@H]1O[C@@H](O[C@H]2[C@H](O)[C@@H](O)C(O)O[C@@H]2CO)[C@H](O)[C@@H](O)[C@H]1O. Briefly: Steady-state kinetics, DCIP-based enzymatic activity assay. The conditions noted are these: other: apparent constant, 100 mM McIlvaine buffer pH 5.5, DCIP as artificial electron acceptor, 30°C. In kind it is biochemical, Neurospora crassa. On the procedure: Enzyme activity was assayed at 30°C using the DCIP (Karapetyan et al., 2005 Journal of Biotechnology 121: 34-48) as electron acceptor. Stock solutions of carbohydrates used for kinetic measurements were prepared in the respective buffer and allowed to stand overnight for mutarotation, while stock solutions of electron acceptors were prepared in water and immediately used. The reaction stoichiometry is 1 for the two-electron acceptor DCIP (1 mole of DCIP reduced per mole of carbohydrate oxidized. Kinetic constants were calculated by fitting the observed data to the Henri-Michaelis-Menten equation or to the adapted model for substrate inhibition using nonlinear least-squares regression and the program SigmaPlot (Systat Software, San Jose, CF, USA). The protein concentration was determined with the Bradford assay.
CDH from N. crassa oxidises glucose and galactose (Harreither et al., 2007), which has negative side effects on the lactose detection accuracy if glucose and galactose are present. […] The enzyme variant N722Q was heterologously produced in P. pastoris according to the explained routines and compared to the recombinant wild-type CDH from N. crassa. […] To investigate the effect of the mutation in the N. crassa variant a full characterization of steady-state constants was performed (Tables 2 and 3). Table 2: Apparent kinetic constants of wtCDH for indicated electron donors in 100 mM McIlvaine buffer at pH 5.5 using DCIP as artificial electron acceptor
Table 3: Apparent kinetic constants of N722Q N. crassa sensor for indicated electron donors in 100 mM McIlvaine buffer at pH 5.5 using DCIP as artificial electron acceptor

Turning to “Neurospora crassa cellobiose dehydrogenase (CDH) variant N722Q (N722 of SEQ ID NO: 4 substituted by glutamine) (Neurospora crassa OR74A; N722Q)”, the Km was 2.18 ± 0.28 > 10 M^b mM, the kcat is 77.92 s⁻¹ and the kcat/Km came to 35.74 mM⁻¹ s⁻¹.
